Assay results taken from the nanobody polyreactivity screen of Harvey et al. (2022).

Experiment: yeast display, Sf9 membrane polyspecificity reagent, FACS + sequencing; frameworks hold sequencing errors
How it was run: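 Nanobodies from a synthetic yeast display library (Saccharomyces cerevisiae BJ5465), induced 36–48 hours with galactose, were stained 1 hour at 4 °C with 10% biotinylated, detergent-solubilized Sf9 membrane reagent, enriched on streptavidin microbeads, then FACS-sorted. Anti-HA (expression) and streptavidin (reagent binding) fluorescence set low and high (top ~1%) gates. Polyreactivity labels come from the gate of origin. Genes were colony-PCR amplified, MiSeq 2 × 250 sequenced and filtered by CDR length.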

Sequence: QVQLVESGGGLVQAGGSLRLSCAASGSIFVVNAMGWYRPAPGKERELVAAISDSGDRTYYADSVKGRFTISRDNAKNTVYLLMNSLKPEDTAVYYCNTRYSPGYQGTEVDYWGQGTQVTVSS
- polyreactivity (PSR sort gate): low polyreactivity

Sequence: QVQLVESGGGLVQAGGSLRLSCAASGSIFYTYAMGWYRQAPGKERELVADITTNGGNTYYADSVKGRFTISRDNAKNTVYLQMNSLKPEDTAVYYCARDRYDEPDEGDYDYWGQGTQVTVSS
- polyreactivity (PSR sort gate): low polyreactivity

Sequence: QVQHVESGGGLVQAGGSLRLSCAASGSIIYRNAMGWSRQPPGKERELVAAISWSAARTYYADSVKGRFTISRDNAKNTVYLQMNSQKPEDTAVYYCNKAARFTSHQGYDSWGQGTQVTVSS
- polyreactivity (PSR sort gate): high polyreactivity

Sequence: QVQLVESGGGLVQAGGSLRLSCAASGSIFYRYDMGWYRQAPGKERELVADISWSSGRTYYADSVKGRFTISRDNAKNTVYLQMNSLKPEDTAVYYCATDDFWNVKFYAYYPEFDYWGQGSQVTVSS
- polyreactivity (PSR sort gate): low polyreactivity

Sequence: QVQLVESGGGLVQAGGSLRLSCAATRSTIQANTIGWYRQAPGKERALVAAISIRGANTYYADSVKGRLTISRDNAKNTFYLQMNSLKREDSAVYYCATRVGKYSLSLDYWGQGTQVTVSS
- polyreactivity (PSR sort gate): high polyreactivity

Sequence: QVQLVESGRGLVQAGGSLRLSCAPSGYIFAANAMGWYRQAPGKERELVAAISASGGSTYYADSVKGRFTISRDNAKNTVYLQMNSLKPEDTAVYYCYVVSDSRLYYRYAYDYWGQGTQVTVSS
- polyreactivity (PSR sort gate): high polyreactivity

Sequence: QVQLVESGGGLVQAGGSLRLSCAASGSIFSFYAMGWYRQAPGKERELVAAIDVSGGSTYYADSVKGRFTISRDNAKNTVYLQMNSLKPEDTAVYYCAKDVRDQYDYWGQGTQVTVSS
- polyreactivity (PSR sort gate): low polyreactivity

Sequence: QVQLVESGGGLVQAGGSLRLSCAASGSIFVPNAMGWYRQAPGKEREFVAAITRSGGRTYYADSVKGRFTISRDNAKNTVYLQMNSLKPEDTAVYYCAAPYGTYAYDYWGQGTQVTVSS
- polyreactivity (PSR sort gate): high polyreactivity

Sequence: QVQLVESGGGLVQAGVSLRLSCAASGRTFGYNAMGWYRQAPGKERVVVAAITIGGSTNYADSVKGRFTISRDNAKNTVYLQMNSLKPEDTAVYYCAAYDTLLYWVEFYYWGQGTQVTVSS
- polyreactivity (PSR sort gate): low polyreactivity

Sequence: QVQLVESGGGLVQAGGSLRLSCAASGRTFGRYVMGWYRQAPGKERELVAAIRSRGGSTYYADSVKGRFTISRDNAKNTVYLQMNSLKPEDTAVYYCNAVDRKPYRTYDYWGQGTQVTVSS
- polyreactivity (PSR sort gate): high polyreactivity

Sequence: QVQLVESGGGLVQAGGSLSLSCAASGSIFAQYAMGWYRQAPGKERELVATISSVGSTNYADSVKGRFTISRANAKNTVYLQMNSLKPEDTAVYYCAADYRHDTFSNEYDYWGQGTQVTVSS
- polyreactivity (PSR sort gate): low polyreactivity

Sequence: QVQLVESGGGLVQAGGSLRLSCAASGSIFRYNAMGWYRQAPGKEREFVAIISYAGVRTYYADSVKGRFTISRDNAKNTVYLQMNSLKPEDTAVYYCAADFKQKGHRTRTTYWGQGTQVTVSS
- polyreactivity (PSR sort gate): high polyreactivity

Sequence: QVQLVESGGGLVQAVGSLRLSSAASRSTFGLNAMGWYRQAPGKESELVAAITFSGGSTYYADSVKGRFTISRDNANNTVYLQKNSLKPEDTAVYYCAARFSLEGGYYWGQGTQVTVSS
- polyreactivity (PSR sort gate): low polyreactivity

Sequence: QVQLVESGGGLVQAGGSLRLSCASSGSKLGINVMGWYRQAPGKERELVAAISRRGGSTNYADSVKGRFTISRDNAKNTVYLQMNSLKPEDTAVYYCNALGHVQGYDYWGQGTQVTVSS
- polyreactivity (PSR sort gate): high polyreactivity

Sequence: QVQLEESGGGLVQAGGSLRLSCAASGSTFHGYAMGWYRQEPGKERELVAAITSGDSTNYADSVKGRFTISRDNAKNTVYLQMNSLKPEDTAVYYCNAEGSSVLTGYWGYPPYWDTYDYWGQGTQVTVSS
- polyreactivity (PSR sort gate): low polyreactivity

Sequence: QVQLVESGGGLVQAGGSLRLSCAASGRTFSVNAMGWYRQAPGKERELVAAITSGASTNYADSVKGRFTMSRDNAKNTVYLQMNSLKPEDTAVYYCAADATYGHVPAEYDYWGQGTQVTVSS
- polyreactivity (PSR sort gate): low polyreactivity

Sequence: QVQLVESGGGLVQAGGSLRLSCAASGSIFKTNAMGWYRQAPGKERELVAAIYRSDGTDYADSVKGRFTISRDNAKNTVYLQMNSLKPEDTAVYYCNADKWSVVGYVLGFYRDDYWGQGSQVTVSS
- polyreactivity (PSR sort gate): low polyreactivity

Sequence: QDQLVESGGGLVQAGGSLRLSCAASGYTFRYYAMGWYRQAPGKERELVARITGRAGSTYYADSVKGRFTISRDNAKNTVYLQMNSLKPEDTAVYYCAASIREGFYWGQGTQVTVSS
- polyreactivity (PSR sort gate): high polyreactivity

Sequence: QVQLVESGGGLVQAGGSVRLSCAASGRIFRYYALGWYRQAPGQEREWVAGITRGGTTNYADSVKGRFTISRDNATNTVSLQMNSLKPEDTAVYYCAADTRRGIIGYDYWGQGTQVTVSS
- polyreactivity (PSR sort gate): high polyreactivity

Sequence: QVQLVESGGGLVQAGGSLRLSCAASGRIFKWYAMGWSRQAPGKERELVAAITSGGSTYYADSVKGRFTISRDNAKNTVYVQMNSLKPEDTAVYYCNRYGVHRRDDYWGQGTQVTVSS
- polyreactivity (PSR sort gate): high polyreactivity

Sequence: QVQLVESGGGLVQAGGSLRLSCAASGSIFRVNAMGWYRQAPGKERELVAAITDGGITNYADSVKGRFTISRDNAKNTVYLQMNSLKPEETAVYYCAADTDRDFHYVVPTYDYWGQGTQVTVSS
- polyreactivity (PSR sort gate): low polyreactivity

Sequence: QVQLVESGGGLVQAGGSLRLSCAASGRTFQVNAMGWYRQAPGKERELVAGITQRAGSTYYADSVKGRFTISRDNAKNTVYLQMNSLKPEDTAVYYCAAQDVHLWYENYYWGQGTQVTVSS
- polyreactivity (PSR sort gate): low polyreactivity

Sequence: QVQLVESGGGLVHAGGSLRLSCAASGNIPPGNAMGWYRQAPGKERELVAAITASDGSTYYADSEKGRFTISRDHDKNTVYLQMNSLKPEDTAVYYCAKEQVYTYYLEYEYWGQGTQVTVSS
- polyreactivity (PSR sort gate): high polyreactivity

Sequence: QVQLVESGGGLVQAGGSLRLSCAASGRTFRTYNMGWYRQAPGKERELVAAISYSGGSTYYADSVKGRFTISRDNAKNTVYLQMNSLKPEDNAVYYCNARRYFWGFDYWGQGTQVNVSS
- polyreactivity (PSR sort gate): high polyreactivity

Sequence: QVQLVESGGGLVQAGGSLRLSCAASGRTFEIYAMGWYRQEPGKERELVAAITSGGSTYYADSVKGRFTISRDNAKNTVYLQMNSLKPEDTAVYYCNAYLYYDAHGVDYWGQGTQVTVSS
- polyreactivity (PSR sort gate): high polyreactivity

Sequence: QVQLVESGGGLVQAGGSLRLSSAASGSIFWVYAMGWYRQAPGKERELVAAISNRGGSTYYADSVKGRFTISRDNAKNTVYLQMNSLKPEDTAVYYCAAVVAHHYYWGQGTQVTVSS
- polyreactivity (PSR sort gate): high polyreactivity

Sequence: QVQLVESGGGLVQAGGSLRLSCAASGLIFSTYYMGWYRQAPRKERELVAAISTGGSTYCADSVKGRFTISRDNAKNTVYLQMNSLKPEDTAVYYCAAGYTYHSWPLYYWDYNYWGQGTQVTVSS
- polyreactivity (PSR sort gate): low polyreactivity

Sequence: QVQLVESVGGLVQAGGSLRLSCAASGFILAVYVLGWYRQAPGKERELVAAISWSGGSTYYADSLKGRFTISRDNAKNTVYFKMNRLKPEYTAVYSCNTVAKSPVKYDYWGQGTQVTVSS
- polyreactivity (PSR sort gate): high polyreactivity

Sequence: QVQLVESGGGLVQAGGSLRLSCAASGSIYRDYTMGWYRQAPGKERELVAISWSSGGTNYADSVKGRFTISRDNAKNTVYLQMNSLKPEDTAVYYCAADRSTGLGDDDYWGQGTQVTVSS
- polyreactivity (PSR sort gate): low polyreactivity

Sequence: QIQLVESGGGLLQAGGSLGLSCAASGSIFVKYAMGWYRQAPGKERELVAAITTGVGSTYYADSVKGRFTISRDNAKNTVYLQMNSVKPEDSAVFYWNAYAYFGPWWSFRATYDYWGQGTQVTVSS
- polyreactivity (PSR sort gate): low polyreactivity

Sequence: QVQLVESGGGLVQAGGSLRLSCAASGITFLYYAMGGYRQAPGKERELVAAITSGGSTYYADSVKGRFTISRDNAKNTVYLQMNSLKPEDTAVYYCAAGTYDGGYHYDYWGEGTQVTVSS
- polyreactivity (PSR sort gate): high polyreactivity

Sequence: QVQLVESGGGLVQAGGSLRLSCAASGSIFGFYAMGWYRQAPGKERELVASINWSGGSTYYADSVKGRFTISRDNAKNTVYLQMNSLKPEDTAVYYCNADQYHWYDYWGQGTQVTVSS
- polyreactivity (PSR sort gate): low polyreactivity

Sequence: QVQLVESGGGLVQAGGSLRLSCAASGSIFGYNTMGWYRQAPGKERELVATITRGGSTHYADSVKGRFTISRDNAKNTVYLQMNSLKPEDTAVYYCAATRLSYVRLYRFSQQYYYWGQGTQVTVSS
- polyreactivity (PSR sort gate): high polyreactivity

Sequence: QVQLVESGGGLVQAGGSLRLSCAASGRIFNYYAMGWYRQAPGKERELVARITVGGRTYYADSVKGRFTISRDNAKNTVYLQMNSLKPEDTAVYYCAAVFPYHFGNMDYWGQGTQVTVSS
- polyreactivity (PSR sort gate): high polyreactivity

Sequence: QVQLVESGGGLVQAGGSLRLSCAASGRIFGYYVMGWYRQAPGQERELVARIRSGGNTYYADSVKGRFTISRDNAKNTVYLQMNSLKPEDTAVYYCNADPRTGWYKYDYWGQGTQVTVSS
- polyreactivity (PSR sort gate): high polyreactivity

Sequence: QVQLVESGGGLVQAGGILRLSCAASGSKIGYYAMVWYRQAPGKERELVAAISAGDRTYYADSVKGRFTISRDNAKNTVYLQMNSLKPEDTAVYYCAAASYYQSYRYGYWGQGTQVTVSS
- polyreactivity (PSR sort gate): high polyreactivity

Sequence: QVQLVESGGGLVQAGGSLRLSCAASGSIFSNNAMGLYRQAPGKVSELVASITFSGGNTYYADSVKGRFTISRDNAKNTVYLQMNSLKPEDTAVYYCNADRYPVGTAREYDSWGQGTQVTVSS
- polyreactivity (PSR sort gate): low polyreactivity

Sequence: QVQLVESGGGLVQAGGSLRLSCAASGRIFLHYAMGWYRQAPGKERELVAGITKSGSSTYYADSVKGRFTISRDNAKNTVYLQMNSLKPEDTAVYYCAARKIHHHVYGAWPRYGYWGQGTQVTVSS
- polyreactivity (PSR sort gate): high polyreactivity

Sequence: QVQLVESGGGLVQAGDSLRLSCAASGSTFTRNAMGWYRQAPGKERDLVASITRGGSTYADSVKGRFTISRDNAKNTVYLQMYSLKPEDTAVYYCAKSVTCWRGLWYTPRNYFWGQGSQVTVSS
- polyreactivity (PSR sort gate): high polyreactivity

Sequence: QVQLVETGGGLVQAGGSHRLSCAASGSTFDAYAMGWYRQAPGKETELVAGISIVGSTNYADSVKGRFTISRDNAKNTVYLKMNSLKPEDTAVLYCAADRDWQYSFRPSVYGYDYVYWGQGTQVTVSS
- polyreactivity (PSR sort gate): low polyreactivity

Sequence: QVQLVDSGGGLVQAGGSLRLSCAASGRTLAFNAMGWYRQAPGKERELVAVIRNGTSTNYADSVKGRFTISRDNAKNTVYLQMNSLKPEDTGVYYCNVPYYLPSYLSGYDYWGQGTQVTVSS
- polyreactivity (PSR sort gate): low polyreactivity

Sequence: QVQLVESGGGLVQAGGSLRLTCAASGSIFRGYDMRWYRQAPGKERELVAASTWSGSTYYADSVKGRFTISRDNGKNTVYLQMNSLKPEDTAVYYCAAGSRYAYAYTMDYWGQGTQVTVSS
- polyreactivity (PSR sort gate): high polyreactivity

Sequence: QVQLVESGGGLVQAGGSLRLSCAASGYTYRYYAMGWYRQAPGKERELVAAISASGGITYYADSVKGRFTISRDNAKNTVDLQMNCLNPEDTAVYYCATTGWGSWFDPYDYWGQGTQVTVSS
- polyreactivity (PSR sort gate): high polyreactivity
